Test results: US20220283173A1

Legend:
Anti-Mx1-AF488 [1] = experiment: competitive TR-FRET; unlabelled MxA at 0.006 (unit µ/mL [sic]) displacing Mx1-L4 from Anti-Mx1-AF488
Anti-Mx1-AF488 [2] = experiment: competitive TR-FRET; unlabelled MxA at 0.024 (unit µ/mL [sic]) displacing Mx1-L4 from Anti-Mx1-AF488
Anti-Mx1-AF488 [3] = experiment: competitive TR-FRET; unlabelled MxA at 0.098 (unit µ/mL [sic]) displacing Mx1-L4 from Anti-Mx1-AF488
Anti-Mx1-AF488 [4] = experiment: competitive TR-FRET; unlabelled MxA at 0.391 (unit µ/mL [sic]) displacing Mx1-L4 from Anti-Mx1-AF488
Anti-Mx1-AF488 [5] = experiment: competitive TR-FRET; unlabelled MxA at 1.563 (unit µ/mL [sic]) displacing Mx1-L4 from Anti-Mx1-AF488
Anti-Mx1-AF488 [6] = experiment: competitive TR-FRET; unlabelled MxA at 6.250 (unit µ/mL [sic]) displacing Mx1-L4 from Anti-Mx1-AF488
Anti-Mx1-AF488 [7] = experiment: competitive TR-FRET; unlabelled MxA at 25.000 (unit µ/mL [sic]) displacing Mx1-L4 from Anti-Mx1-AF488
Anti-Mx1-AF488 [8] = experiment: competitive TR-FRET; unlabelled MxA at 0.000 (no competitor, the reference R0) with Mx1-L4 and Anti-Mx1-AF488

B1: Human myxovirus resistance protein A (MxA), unlabelled standard (protein)
chain: MVVSEVDIAKADPAAASHPLLLNGDATVAQKNPGSVAENNLCSQYEEKVRPCIDLIDSLRALGVEQDLALPAIAVIGDQSSGKSSVLEALSGVALPRGSGIVTRCPLVLKLKKLVNEDKWRGKVSYQDYEIEISDASEVEKEINKAQNAIAGEGMGISHELITLEISSRDVPDLTLIDLPGITRVAVGNQPADIGYKIKTLIKKYIQRQETISLVVVPSNVDIATTEALSMAQEVDPEGDRTIGILTKPDLVDKGTEDKVVDVVRNLVFHLKKGYMIVKCRGQQEIQDQLSLSEALQREKIFFENHPYFRDLLEEGKATVPCLAEKLTSELITHICKSLPLLENQIKETHQRITEELQKYGVDIPEDENEKMFFLIDKVNAFNQDITALMQGEETVGEEDIRLFTRLRHEFHKWSTIIENNFQEGHKILSRKIQKFENQYRGRELPGFVNYRTFETIVKQQIKALEEPAVDMLHTVTDMVRLAFTDVSIKNFEEFFNLHRTAKSKIEDIRAEQEREGEKLIRLHFQMEQIVYCQDQVYRGALQKVREKELEEEKKKKSWDFGAFQSSSATDSSMEEIFQHLMAYHQEASKRISSHIPLIIQFFMLQTYGQQLQKAMLQLLQDKDTYSWLLKERSDTSDKRKFLKERLARLTQARRRLAQFPG
Work on B1 yielded a R/R0 (Anti-Mx1-AF488 [1]) of 0.94, a R/R0 (Anti-Mx1-AF488 [2]) of 0.99 and a R/R0 (Anti-Mx1-AF488 [3]) of 0.97. It also gave a R/R0 (Anti-Mx1-AF488 [4]) of 0.89, a R/R0 (Anti-Mx1-AF488 [5]) of 0.72 and a R/R0 (Anti-Mx1-AF488 [6]) of 0.43. It also gave a R/R0 (Anti-Mx1-AF488 [7]) of 0.32 and a R/R0 (Anti-Mx1-AF488 [8]) of 1.
